Measured values from article doi:10.1101/2020.03.08.831909 (2020).

Experiments:
[1] = biological target: His6-OptoMB_(V416I_G528A_N538E) fused to an N-terminus SUMO tag, purified (Avena sativa, UniProt O49003 408-543, V416I | G528A | N538E); test: BLI; light conformation (lit-mimetic mutant)
[2] = biological target: OptoMB_(C450V), light-insensitive, His-tagged, purified (Avena sativa, UniProt O49003 408-543, C450V); test: BLI; dark conformation (C450V)

B1: YFP-SH2, purified (fusion of yellow fluorescent protein and SH2) (domain or fragment)
chain: SLEKHSWYHGPVSRNAAEYLLSSGINGSFLVRESESSPGQRSISLRYEGRVYHYRINTASDGKLYVSSESRFNTLAELVHHHSTVADGLITTLHYPAPKRNKPTVYGVSPNY
Question: How did the Kd [1] turn out when B1 was run?
Answer: Its Kd is 21.7 µM.

Question: And the koff [1]?
Answer: The koff was 0.0489 s⁻¹.

Question: And the koff [2]?
Answer: The koff was 0.00753 s⁻¹.
